Where a chain is given by its changes, count along the chain named.
T1: human FSTL1 (construct not stated) (human, UniProt Q12841 21-308)
T1 construct: also called human FSTL1 antigen; FSTL1 (R&D Systems, Inc. Cat#1694-FN-050)
T1 sequence: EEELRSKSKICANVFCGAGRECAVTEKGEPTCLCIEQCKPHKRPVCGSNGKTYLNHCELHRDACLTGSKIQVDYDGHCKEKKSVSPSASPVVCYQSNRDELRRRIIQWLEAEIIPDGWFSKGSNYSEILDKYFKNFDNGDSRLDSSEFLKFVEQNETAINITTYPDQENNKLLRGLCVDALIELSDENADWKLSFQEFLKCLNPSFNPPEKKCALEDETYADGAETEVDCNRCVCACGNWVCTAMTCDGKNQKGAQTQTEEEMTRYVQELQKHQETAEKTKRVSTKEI

T2: His-tagged mouse FSTL1 (amino acid sequence of mouse FSTL1 used in Examples, SEQ ID NO: 72) (mouse, UniProt Q62356 19-306)
T2 sequence: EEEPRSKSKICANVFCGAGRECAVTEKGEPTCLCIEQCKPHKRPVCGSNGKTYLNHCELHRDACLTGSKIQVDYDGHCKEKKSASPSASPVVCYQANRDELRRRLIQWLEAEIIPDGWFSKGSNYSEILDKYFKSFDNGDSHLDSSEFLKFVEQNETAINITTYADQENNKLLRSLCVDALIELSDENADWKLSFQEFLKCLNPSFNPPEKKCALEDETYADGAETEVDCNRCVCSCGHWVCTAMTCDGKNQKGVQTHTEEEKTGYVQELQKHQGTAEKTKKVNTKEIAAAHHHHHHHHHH

B1: humanized #6-55 antibody H(3)-L(1) (IgG1 type) (antibody, V domains shown)
VH: EVQLLESGGGLVQPGGSLRLSCAASGFTFSSVTMQWVRQAPGKGLEFVASVCSGSSTYYAPAVKGRVTISRDNSKNTVYLQMNSLRAEDTAVYYCAKIAGRARWSCTSAAYNIDAWGQGTLVTVSS
VL: SYELTQPPSVSVSPGQTARITCSGGGNNYGWYQQKPGQAPVTVIYYNDNRPSGIPERFSGSNSGSTTTLTISGVQAEDEADYYCGSWDSNTDSGIFGGGTKLTVLG
notes: Human IgG1 constant region; expressed in HEK293; also called h#6-55 H(3)-L(1)
B2: anti-FSTL1 antibody clone #13 (chicken-mouse chimeric antibody) (antibody, mouse IgG1, kappa, V domains shown)
VH: AVTLDESGGGLQTPGGGLSLVCKASGFTFSSVTMQWVRQAPGKGLEWVASICSGSSTYYGPAVKGRATISRDNGQNTVRLQLNNLRAEDTATYYCAKIVGRGRWSCTSAAYNIDAWGHGTEVIVSS
VL: ASTQPSSVSANPGETVKITCSGGGNNYGWYQQKSPGSAPVTVIYNNNNRPSNIPSRFSGSKSGSTNTLTITGVQAEDEAVYYCGSYDSSSDSGIFGAGTTLTVLG
B3: anti-FSTL1 antibody clone #5-10 (chicken-mouse chimeric antibody) (antibody, mouse IgG1, V domains shown)
VH: AVTLDESGGGLQTPGGGLSLVCKGSGFTLSSFNMFWVRQAPGKGLEWVAGVGKDGGTTYGAAVDGRATISRDSGQSTVRLQLNDLRAEDTGTYFCAKAAGGCSYSWCGAYVGDLDAWGHGTEVIVSS
VL: ASTQPSSVSANPGETVKITCSGGGSYVGSYYYGWYQQKSPGSAPVTVIYNNNQRPSDIPSRFSGSKSGSTATLTITGVQAEDEAVYFCGGYDSSAGGIFGAGTTLTVLG
B4: anti-FSTL1 antibody clone #33 (chicken-mouse chimeric antibody) (antibody, mouse IgG1, kappa, V domains shown)
VH: AVTLDESGGGLQTPGGGLSLVCKASGFTFSSFNMNWVRQAPGKGLEYVAEISGTGSSTYYGSAVKGRATISRDNGQSTVRLQLNNLRAEDTATYFCARGDGAYSIDAWGHGTEVIVSS
VL: ASTQPSSVSANPGETVEITCSGDSSYYGWFQQKSPGSAPVTVIYDNTNRPSDIPSRFSGSKSGSTATLTITGVRAEDEAVYYCGGYDSSTYDGIFGAGTTLTVLG
B5: anti-FSTL1 antibody clone #6-55 (chicken-mouse chimeric antibody) (antibody, mouse IgG1, kappa, V domains shown)
VH: AVTLDESGGGLQTPGGALSLVCKGSGFTFTSVTMQWVRQAPGKGLEWVASVCSGSSTYYAPAVKGRATISRDNGQSTVRLQLSNLRPEDTGTYYCAKIAGRARWSCTSAAYNIDAWGHGTEVIVSS
VL: ASTQPSSVSAIPGETVKITCSGGGNNYGWYQQRSPGSAPVTVIYYNDNRPSNIPSRFSGSTSGSTSTLTITGVQADDEAIYYCGSWDSNTDSGIFGAGTTLTVLG
notes: also called Anti-FSTL1 mAb (#6-55)
B6: anti-FSTL1 antibody clone #8-7 (chicken-mouse chimeric antibody) (antibody, mouse IgG1, kappa, V domains shown)
VH: AVTLDESGGGLQTPGGGLSLVCKGSGFTFSSFNMFWVRQAPGKGLEWVAGIGKDGVPKYGAAVDGRATISKDNGQSTLRLQLNNLRAEDTGTYFCAKAAGGCSYDWCGIYAGDIDTWGHGTEVIVSS
VL: ASTQPSSVSANPGEAVKITCSGGSGSYYGWYQQKSPGSAPVTVIYNNNQRPSDIPSRFSGSKSGSTATLTITGVQAEDEAVYFCGGYDSSTGHGGIFGAGTTLTVLG
B7: anti-FSTL1 antibody clone #5-3 (chicken-mouse chimeric antibody) (antibody, mouse IgG1, kappa, V domains shown)
VH: B6 VH with G17A, T28S, L78M
VL: ASTQPSSVSANPGETVKITCSGGSGYYYGWYQQKSPGSVPVTVIYNNNNRPSDIPSRFSGSKSGSTGTLTITGVRAEDEAVYYCGGYDNSGTGIFGAGTTLTVLG
B8: anti-FSTL1 antibody clone #5-2 (chicken-mouse chimeric antibody) (antibody, mouse IgG1, kappa, V domains shown)
VH: B6 VH with I51V, V56G, P57T, K58G, F94Y, D105G, I109S, A111V, T116A
VL: B6 VL
B9: anti-FSTL1 antibody clone #5-43 (chicken-mouse chimeric antibody) (antibody, mouse IgG1, kappa, V domains shown)
VH: B6 VH with V56G, P57T, K58G, N73S, F94Y, I109A, A111T
VL: B6 VL
B10: anti-FSTL1 antibody clone #5-8 (chicken-mouse chimeric antibody) (antibody, mouse IgG1, kappa, V domains shown)
VH: B6 VH with A61T, L78M, A111T
VL: B6 VL
B11: anti-FSTL1 antibody clone #8-1 (chicken-mouse chimeric antibody) (antibody, mouse IgG1, kappa, V domains shown)
VH: B6 VH with G17A, L78M
VL: B6 VL with T91S
B12: anti-FSTL1 antibody clone #8-8 (chicken-mouse chimeric antibody) (antibody, mouse IgG1, kappa, V domains shown)
VH: B6 VH with G17A, L78M, F94Y, D105G, I109A, A111T
VL: B6 VL with A76V

Target: T1, human FSTL1 (construct not stated)
Test: SPR (Biacore T-200), antibody on Human Antibody Capture Kit, human FSTL1 0 to 20 µg/ml
Description: (§1) Nine IgG1-type humanized antibodies of #6-55 were immobilized onto Sensor Chip CM5 (GE Healthcare Japan Corp., BR-1005-30) using Human Antibody Capture Kit (GE Healthcare Japan Corp., BR-1008-38), and their affinity for human FSTL1 was calculated using Biacore T-200 (GE Healthcare Japan Corp.). […] Among the 9 IgG1-type humanized antibodies of #6-55, a clone composed of a combination “H(2)-L(1)” having a […] KD value was selected as a lead antibody.

| Binder | Kd |
| --- | --- |
| B1 | 26.7 nM |

Target: T1, human FSTL1 (construct not stated)
Test: SPR (Biacore T-200), captured antibody, human FSTL1 10 µg/ml; as to Dissociation amount (RU): time not given here
Description: (§2) The mouse chimeric antibodies were immobilized onto Sensor Chip CM5 (GE Healthcare Japan Corp., BR-1005-30) using Mouse Antibody Capture Kit (GE Healthcare Japan Corp., BR-1008-38), and their affinity for human FSTL1 was calculated using Biacore T-200 (GE Healthcare Japan Corp.).

| Binder | Binding amount (RU) | Dissociation amount (RU) |
| --- | --- | --- |
| B2 | 8.7 RU | 0.2 RU |
| B3 | 9.8 RU | 12.1 RU |
| B4 | 10.9 RU | 4.1 RU |
| B5 | 11 RU | 1.5 RU |
| B6 | 12.8 RU | 11.8 RU |
| B7 | 11 RU | 8.8 RU |
| B8 | 9.2 RU | 7.1 RU |
| B9 | 7 RU | 3.1 RU |
| B10 | 6.7 RU | 3.4 RU |
| B11 | 11.1 RU | 12.3 RU |
| B12 | 8 RU | 4.7 RU |

Target: T1, human FSTL1 (construct not stated)
Test: SPR (Biacore T-200), antibody on Human Antibody Capture Kit, human FSTL1 0 to 20 µg/ml
Remark: another data set of the same source
Description: as §1

| Binder | Kd |
| --- | --- |
| B1 | 26.7 nM |

Target: T1, human FSTL1 (construct not stated)
Test: SPR (Biacore T-200), captured antibody, human FSTL1 10 µg/ml; as to Dissociation amount (RU): time not given here
Remark: another data set of the same source
Description: as §2
(§3) First, the exhaustive activity comparison of the obtained antibodies was conducted with the human FSTL1 concentration fixed to 10 μg/ml (Table 33-1, FIG. 28).

| Binder | Binding amount (RU) | Dissociation amount (RU) |
| --- | --- | --- |
| B2 | 8.7 RU | 0.2 RU |
| B3 | 9.8 RU | 12.1 RU |
| B4 | 10.9 RU | 4.1 RU |
| B5 | 11 RU | 1.5 RU |
| B6 | 12.8 RU | 11.8 RU |
| B7 | 11 RU | 8.8 RU |
| B8 | 9.2 RU | 7.1 RU |
| B9 | 7 RU | 3.1 RU |
| B10 | 6.7 RU | 3.4 RU |
| B11 | 11.1 RU | 12.3 RU |
| B12 | 8 RU | 4.7 RU |

Target: T1, human FSTL1 (construct not stated)
Test: as above
Remark: another data set of the same source
Description: as §2, §3

| Binder | Binding amount (RU) | Dissociation amount (RU) |
| --- | --- | --- |
| B2 | 8.7 RU | 0.2 RU |
| B3 | 9.8 RU | 12.1 RU |
| B4 | 10.9 RU | 4.1 RU |
| B5 | 11 RU | 1.5 RU |
| B6 | 12.8 RU | 11.8 RU |
| B7 | 11 RU | 8.8 RU |
| B8 | 9.2 RU | 7.1 RU |
| B9 | 7 RU | 3.1 RU |
| B10 | 6.7 RU | 3.4 RU |
| B11 | 11.1 RU | 12.3 RU |
| B12 | 8 RU | 4.7 RU |

Target: T1, human FSTL1 (construct not stated)
Test: as above
Remark: another data set of the same source
Description: as §2, §3

| Binder | Binding amount (RU) | Dissociation amount (RU) |
| --- | --- | --- |
| B2 | 8.7 RU | 0.2 RU |
| B3 | 9.8 RU | 12.1 RU |
| B4 | 10.9 RU | 4.1 RU |
| B5 | 11 RU | 1.5 RU |
| B6 | 12.8 RU | 11.8 RU |
| B7 | 11 RU | 8.8 RU |
| B8 | 9.2 RU | 7.1 RU |
| B9 | 7 RU | 3.1 RU |
| B10 | 6.7 RU | 3.4 RU |
| B11 | 11.1 RU | 12.3 RU |
| B12 | 8 RU | 4.7 RU |

Target: T2, His-tagged mouse FSTL1 (amino acid …)
Test: ELISA, mouse FSTL1 coated (FIG. 3B)

| Binder | binding result |
| --- | --- |
| B2 | binds |
| B4 | binds |
| B5 | binds |
| B10 | no binding (tested: antibody diluted from 100 ng/ml) |
| B11 | binds |

Reference: patent US20180021429A1 (PHARMA FOODS INTERNATIONAL, published 2018)
